In publication PMC3235549:

Molecular target: Recombinant RNMT (human) (UniProt O43148)
Sequence of UniProt O43148 (O43148 whole entry): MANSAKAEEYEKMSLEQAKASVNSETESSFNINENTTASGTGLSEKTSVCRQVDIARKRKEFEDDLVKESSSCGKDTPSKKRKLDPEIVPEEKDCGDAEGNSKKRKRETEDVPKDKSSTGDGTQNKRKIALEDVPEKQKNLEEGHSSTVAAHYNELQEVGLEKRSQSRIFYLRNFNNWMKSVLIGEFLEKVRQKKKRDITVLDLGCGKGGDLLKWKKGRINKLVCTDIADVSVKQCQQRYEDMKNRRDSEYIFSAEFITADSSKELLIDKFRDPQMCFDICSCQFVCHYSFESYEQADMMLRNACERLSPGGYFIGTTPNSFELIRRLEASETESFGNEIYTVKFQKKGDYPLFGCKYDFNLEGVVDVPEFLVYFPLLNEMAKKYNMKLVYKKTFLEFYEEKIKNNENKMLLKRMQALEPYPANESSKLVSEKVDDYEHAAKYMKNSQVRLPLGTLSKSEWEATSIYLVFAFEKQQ

in vitro cap methyltransferase assay, 20 nM RNMT with 20 nM RAM (Figure 3D): > 4 fold
Substance: Recombinant RAM (from UniProt Q9BTL3 1-118) (natural protein)
